Experimental data taken from publication PMC3222648, “Inotropic Action of the Puberty Hormone Kisspeptin in Rat, Mouse and Human: Cardiovascular Distribution and Characteristics of the Kisspeptin Receptor” (PLoS ONE, 2011).
Values joined by “and” are separate entries in the source; they are usually repeats but may differ in a detail not shown here. Identical values can stand only once. Like-named read-outs stand apart in the source and are kept apart here. One block for each molecule: values may come before it. Bridges are numbered along the chain shown (N, C = ends). Where no end group is shown, it is not given here.

Experiments:
[1] = target: T1, kisspeptin receptor (Rattus norvegicus, UniProt Q924U1); experiment: Inotropic activity in rat paced paired atria; parameters: Paired rat or mouse atria; from tissue; host or cells: rat paired atria; conditions: read-out: EMAX (maximum positive inotropic response)
Procedure: (§1) Paired rat or mouse atria, or 4 mm strips of human atrial appendage, were mounted in 10 ml organ baths containing oxygenated Krebs solution at 37°C as described previously. […] Experiments were terminated by the addition of 6.7 mM CaCl2 (final bath concentration 8.95 mM) and responses expressed as a % of this CaCl2 maximum. Radioligand binding study data were analyzed using the iterative, non-linear curve fitting programs EBDA and LIGAND in the KELL package (Biosoft, Cambridge, UK). Pooled KD, BMAX and Hill slopes (nH) were expressed as mean±SEM and normalized to protein concentrations. […] Where appropriate, values were compared by one-way analysis of variance (ANOVA). In all cases P<0.05 was considered statistically significant and n-values were the number of animals or patients from which data were obtained.

[2] = target: T2, kisspeptin receptor (Homo sapiens, UniProt Q969F8); experiment: Inotropic activity in human paced atrial strips
T2 construct: cryostat-cut sections of human (15 µm) or rat (10 µm) heart; from tissue; host or cells: human right atria (control, dilated cardiomyopathy, ischaemic heart disease), cryostat sections
Procedure: as §1

[3] = system: endothelium-denuded rat aortic rings; experiment: Vasoconstrictor activity in endothelium-denuded rat aorta; conditions: mean ± SEM, ET-1 n = 7, KP-10 tissues from 4 animals, KP-54 tissues from 3 animals
Procedure: Rat thoracic aorta was cleaned of connective tissue and cut into 4 mm rings and the endothelial layer removed by gentle rubbing. Tissues were set to a basal tension at which the maximum response to 100 mM KCl was generated and subsequent responses to kisspeptins were expressed as % of this KCl response. Aortic rings were then contracted with 10 µM phenylephrine and 1 µM ACh was added; a reduction in the phenylephrine response of <10% was taken as evidence of removal of endothelium. […] Experiments were terminated by the addition of 100 mM KCl and agonist responses were expressed as a % of this KCl maximum.
Radioligand binding study data were analyzed using the iterative, non-linear curve fitting programs EBDA and LIGAND in the KELL package (Biosoft, Cambridge, UK). Pooled KD, BMAX and Hill slopes (nH) were expressed as mean±SEM and normalized to protein concentrations. In vitro pharmacology data agonist responses were expressed as %CaCl2 response in the paced atrial tissues and %KCl in the vasoconstrictor studies and data were fitted to a four parameter logistic equation using an iterative curve-fitting program (FigSys, Biosoft, Cambridge, UK) to obtain values for potency (pD2: the negative logarithm to the base 10 of the EC50) and maximum response (EMAX: %CaCl2 or %KCl, respectively) expressed as mean±SEM. Where appropriate, values were compared by one-way analysis of variance (ANOVA). In all cases P<0.05 was considered statistically significant and n-values were the number of animals or patients from which data were obtained.

[4] = system: kisspeptin receptor; conditions: ref [3]; cited from earlier work
Excerpt: Kisspeptin, or KP-54, is a member of a larger group of peptides, the RF amides, named after their shared C-terminal amino acids. RF amides have wide ranging roles in reproduction, feeding, blood pressure regulation and pain modulation with kisspeptins most closely implicated in reproduction and energy balance, [23]–[27]. KP-54 is cleaved from a single precursor, encoded by the KISS1 gene, and smaller fragments of kisspeptin have been identified that are cleaved from KP-54 by unidentified proteases.

[5] = target: T1, kisspeptin receptor; experiment: [^125I]KP-14 saturation binding, rat heart sections
Procedure: (§2) [^125I]KP-14 binding was detected using a gamma counter to measure disintegrations per minute (dpm) and total protein content was calculated using the Biorad 96-well microtiter plate system. Radioligand binding study data were analyzed using the iterative, non-linear curve fitting programs EBDA and LIGAND in the KELL package (Biosoft, Cambridge, UK). Pooled KD, BMAX and Hill slopes (nH) were expressed as mean±SEM and normalized to protein concentrations. […] Where appropriate, values were compared by one-way analysis of variance (ANOVA). In all cases P<0.05 was considered statistically significant and n-values were the number of animals or patients from which data were obtained.

[6] = target: T2, kisspeptin receptor; experiment: [^125I]KP-14 receptor autoradiography, human cardiovascular tissue sections; type: binding; conditions: for [^125I]KP-14 specific binding: 0.2 nM [^125I]KP-14, 2 h, mean ± SEM
Procedure: (§3) For receptor autoradiography, cryostat-cut sections of human (15 µm) or rat (10 µm) heart were pre-incubated with phosphate binding buffer (mM: NaH2PO4, 50; NaCl, 100; EDTA, 5; MgCl2, 5; protease inhibitor cocktail, 1; pH 7.4) before incubation for 2 h with 0.2 nM [^125I]KP-14 [31]. […] Equilibrium was broken by washing in 50 mM Tris-HCl buffer, pH 7.4, 4°C before air-drying and apposition to radiation-sensitive film (Kodak Biomax MR) and determination of specific binding by computer-assisted densitometry using the Quantimet 970 system (Leica Microsystems, Bucks, UK).

[7] = target: T1, kisspeptin receptor; experiment: [^125I]KP-14 receptor autoradiography, rat cardiovascular tissue sections; type: binding; conditions: for [^125I]KP-14 specific binding: 0.2 nM [^125I]KP-14, 2 h, pH 7.4, non-specific: 1 µM KP-10, mean ± SEM
Procedure: as §3

[8] = target: T2, kisspeptin receptor; experiment: [^125I]KP-14 saturation binding, human right atria sections; conditions: for BMAX (receptor density) / nH (Hill coefficient): mean ± SEM, n = 3
Procedure: as §2

[9] = system: native human tissue; conditions: ref [40]; cited from earlier work
[10] = cited from earlier work
Excerpt: Our discovery that kisspeptins are positive inotropic agents in human and rodent heart is the first report of such activity. […] Activation of these signaling pathways would be consistent with function as both an inotropic a ...

[11] = system: human heart; conditions: ref [39]; cited from earlier work
Excerpt: The RF-amide peptide family, which also includes prolactin releasing peptide, are known to have roles in cardiovascular regulation, both centrally and peripherally, [35]. However, to date mRNA studies of kisspeptin receptor distribution in whole heart samples have reported low but varying mRNA expression by northern blot, expression was not detected by PCR [3], [4], [32] except by Sawyer and colleagues, who were also able to detect mRNA encoding murine kisspeptin, albeit at very low copy number. We now report for the first time, the expression of kisspeptin a ...

[12] = target: T3, KP-14 (Homo sapiens, UniProt Q15726, ends and bridges not checked; also: 125I-labelled); experiment: saturation radioligand binding, heart sections
T3 chain: DLPNYNWNSFGLRF

[13] = human right atria, dilated cardiomyopathy (DCM)
[14] = human right atria, ischaemic heart disease (IHD)

T2 sequence (Q969F8 whole entry): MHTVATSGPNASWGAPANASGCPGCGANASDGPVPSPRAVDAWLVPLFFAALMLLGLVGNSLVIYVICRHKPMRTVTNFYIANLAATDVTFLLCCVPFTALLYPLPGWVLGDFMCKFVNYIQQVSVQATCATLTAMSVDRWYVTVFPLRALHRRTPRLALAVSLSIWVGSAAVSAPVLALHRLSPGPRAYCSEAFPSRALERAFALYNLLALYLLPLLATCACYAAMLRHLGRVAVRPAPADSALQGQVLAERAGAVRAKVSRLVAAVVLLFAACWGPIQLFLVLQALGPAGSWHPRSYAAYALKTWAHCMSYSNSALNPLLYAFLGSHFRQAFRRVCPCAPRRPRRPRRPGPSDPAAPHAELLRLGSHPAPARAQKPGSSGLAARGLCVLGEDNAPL

Molecule: CC(C)C[C@H](NC(=O)CNC(=O)[C@H](Cc1ccccc1)NC(=O)[C@H](CO)NC(=O)[C@H](CC(N)=O)NC(=O)[C@H](Cc1c[nH]c2ccccc12)NC(=O)[C@H](CC(N)=O)NC(=O)[C@@H](N)Cc1ccc(O)cc1)C(=O)N[C@@H](CCCNC(=N)N)C(=O)N[C@@H](Cc1ccccc1)C(N)=O [KP-10]
Emax [1]: 31 ± 5% | EC50 [2]: 0.102 nM | Emax ([2]; % of CaCl2 maximum (8.95 mM final), human atrial strips, mean ± SEM, n = 5, read-out: EMAX (maximum positive inotropic response)): 59 ± 10%

Molecule: ET-1: ET-1 (human) from Peptide Institute, control vasoconstrictor (CSCSSLMDKECVYFCHLDIIW; disulfide 1-15, 3-11; ends not checked; UniProt P05305 53-73, looked up)
EMAX (maximum vasoconstrictor response) ([3]; % of 100 mM KCl maximum, endothelium-denuded rat aorta): 99±1 % KCl | pD2 (vasoconstriction) ([3]; endothelium-denuded rat thoracic aortic rings, KP-10, KP-54 10^−12–3×10^−9 M, ET-1 10^−10–3×10^−7 M): 8.13±0.11

Molecule: KP-13: smaller fragment of kisspeptin cleaved from KP-54 (LPNYNWNSFGLRF; ends and bridges not checked; UniProt Q15726 109-121, looked up)
biological activity of fragment [4]: retain biological activity

Molecule: KP-14: smaller fragment of kisspeptin cleaved from KP-54; custom synthesised by Severn Biotech (DLPNYNWNSFGLRF-NH2; ends and bridges not checked; UniProt Q15726 108-121, looked up)
biological activity of fragment [4]: retain biological activity

Hill slopes (in words) [5]: close to unity | BMAX ([5]; mean ± SEM, n = 6): 11 ± 2 fmol/mg | nH (Hill coefficient) ([8]; control human right atria): 0.82±0.10 | Hill slopes (in words) ([8]; human right atria): close to unity | BMAX (receptor density) [8, 14]: 13.5±7.0 fmol mg^−1 protein | nH (Hill coefficient) [8, 14]: 0.94±0.03
Molecule: [^125I]KP-14: radioligand (2000 Ci/mmol) prepared from unlabelled KP-14 by direct iodination using the chloramine-T method (DLPNYNWNSFGLRF; not fully specified; ends and bridges not checked; also: 125I radiolabel, site not given here; UniProt Q15726 108-121, looked up)
[^125I]KP-14 specific binding ([6]; human aorta, pH 7.4, n = 6): 214±46 amol mm^−2 | [^125I]KP-14 specific binding ([6]; human apex, pH 7.4, n = 4): 27±6 amol mm^−2 | [^125I]KP-14 specific binding ([6]; human atrial appendage, pH 7.4, n = 4): 51±15 amol mm^−2 | [^125I]KP-14 specific binding ([6]; human interventricular septum, pH 7.4, n = 3): 29±10 amol mm^−2 | [^125I]KP-14 specific binding ([6]; human left atria, phosphate binding buffer pH 7.4, non-specific: 10 µM KP-14, n = 3): 59±16 amol mm^−2 | [^125I]KP-14 specific binding ([6]; human left ventricle, pH 7.4, n = 3): 34±8 amol mm^−2 | specific binding of [^125I]KP-14 (in words) ([6]; human myocardium, all regions, smooth muscle of human aorta and small coronary resistance vessels): observed in all regions of human and rat myocardium | [^125I]KP-14 specific binding ([6]; human right atria, pH 7.4, n = 3): 36±7 amol mm^−2 | [^125I]KP-14 specific binding ([6]; human right ventricle, pH 7.4, n = 3): 31±7 amol mm^−2 | [^125I]KP-14 specific binding ([6]; human small resistance vessel, pH 7.4, n = 5): 4±3 amol mm^−2 | [^125I]KP-14 specific binding ([7]; rat aorta, n = 3): 21±2 amol mm^−2 | [^125I]KP-14 specific binding ([7]; rat heart, n = 5): 29±10 amol mm^−2 | specific binding of [^125I]KP-14 (in words) ([7]; rat myocardium, rat aorta smooth muscle): observed in all regions of human and rat myocardium | BMAX (receptor density) ([8]; control human right atria): 8±5 fmol mg^−1 protein and 8.0±4.8 fmol mg^−1 protein | difference in receptor density or binding affinity ([8]; human right atria, control vs DCM vs IHD): No significant difference in receptor density or binding affinity | BMAX (receptor density) [8, 13]: 10.2±3.4 fmol mg^−1 protein | nH (Hill coefficient) [8, 13]: 1.00±0.02

Molecule: apelin
BMAX [9]: 3.1 fmol/mg | pD2 (inotropic effect) ([10]; ref [44]): 9.9

Molecule: endothelin
pD2 (inotropic effect) ([10]; ref [43]): 8.9

Molecule: urotensin-II: vasoactive peptide and potent inotrope in human heart (ETPDCFWKYCV; ends and bridges not checked; cysteine pairing not given here; UniProt O95399 114-124, looked up)
inotropic activity (in words) [11]: potent inotrope in human heart

Kd [12]: 0.44 nM
B1: Kisspeptin receptor (protein)
chain: MAAEATLGPNVSWWAPSNASGCPGCGVNASDGPGSAPRPLDAWLVPLFFAALMLLGLVGNSLVIFVICRHKHMQTVTNFYIANLAATDVTFLLCCVPFTALLYPLPTWVLGDFMCKFVNYIQQVSVQATCATLTAMSVDRWYVTVFPLRALHRRTPRLALTVSLSIWVGSAAVSAPVLALHRLSPGPHTYCSEAFPSRALERAFALYNLLALYLLPLLATCACYGAMLRHLGRAAVRPAPTDGALQGQLLAQRAGAVRTKVSRLVAAVVLLFAACWGPIQLFLVLQALGPSGAWHPRSYAAYALKIWAHCMSYSNSALNPLLYAFLGSHFRQAFCRVCPCGPQRQRRPHASAHSDRAAPHSVPHSRAAHPVRVRTPEPGNPVRRSPSVQDEHTAPL
